Target: T1, extracellular portion of CD98 (212-630 of CD98hc)
T1 chain: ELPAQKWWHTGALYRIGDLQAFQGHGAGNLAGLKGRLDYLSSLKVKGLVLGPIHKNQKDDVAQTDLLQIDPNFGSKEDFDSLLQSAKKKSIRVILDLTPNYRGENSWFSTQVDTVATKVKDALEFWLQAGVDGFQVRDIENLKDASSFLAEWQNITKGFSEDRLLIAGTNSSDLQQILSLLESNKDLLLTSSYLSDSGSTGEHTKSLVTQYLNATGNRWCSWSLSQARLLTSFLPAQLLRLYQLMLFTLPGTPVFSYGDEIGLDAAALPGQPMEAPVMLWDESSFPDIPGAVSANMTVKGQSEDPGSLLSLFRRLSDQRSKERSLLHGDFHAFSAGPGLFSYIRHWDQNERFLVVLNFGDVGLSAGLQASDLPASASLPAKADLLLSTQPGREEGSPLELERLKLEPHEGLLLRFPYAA
Assay: SPR
Details: chain shown with the change;; parent: est. 24; read off a plot

response: 3.5 RU
B1: domain 1 of CD147, P35613-2 K63A (protein)
chain: AAGTVFTTVEDLGSKILLTCSLNDSATEVTGHRWLKGGVVLAEDALPGQKTEFKVDSDDQWGEYSCVFLPEPMGTANIQLHGPPRVKAVKSSEHINEGETAMLVCKSESVPPVTDWAWYKITDSEDKALMNGSESRFFVSSSQGRSELHIENLNMEADPGQYRCNGTSSKGSDQAIITLRVRSH

Source: paper PMC8632965
